Assay results as given in patent US11203743B2, “Method for producing long-chain glycosylated genistein” (Jiangnan University, priority 2019, dated 2021).

Assay: Specificity of different cyclodextrin glucosyltransferases to glycosylated genistein products (maltodextrin donor, genistein receptor, HPLC)
Format: biochemical
Conditions: for content of long-chain glycosylated genistein in the reaction solution / content of short-chain glycosylated genistein in the reaction solution / ratio of the molar content of long-chain glycosylated genistein to the molar content of total glycosylated genistein in the reaction solution / ratio of the molar content of short-chain glycosylated genistein to the molar content of total glycosylated genistein in the reaction solution: 40° C., pH 6.5, 120 rpm, 20-24 hours; for specificity to long-chain glycosylated genistein products in comparison with wild type: in words, from Tables 1 to 2; for increase of the yield of long-chain glycosylated genistein compared with wild-type cyclodextrin glucosyltransferase: versus wild type
Description: Genistein (purchased from Sigma) was dissolved in dimethyl sulfoxide (DMSO) to prepare a genistein solution with a final concentration of 7.5 g/L; maltodextrin (purchased from Shanghai Sangon Biotech Co., Ltd.) was dissolved in a PBS buffer (50 mM, pH 6.5) to prepare a maltodextrin solution with a final concentration of 40 g/L; the freeze-fried pure enzymes of the mutants A156V/L174P, A156V/L174P/166Y, A156V/L174P/A166V, A156V/L174P/A166G, A156V/L174P/A166K, A156S, A156L and L174M obtained in Example 1 were dissolved in a PBS buffer (50 mM, pH 6.5) separately to prepare a CGTase enzyme solution with a final concentration of 15 U/L; 300 μL of the genistein solution, 500 μL of the maltodextrin solution and 200 μL of the CGTase enzyme solution were taken separately, mixed in a 2 mL vial with a lid and placed in a shaker for slow shaking at 40° C. and 120 rpm for 20-24 hours to obtain a reaction solution.
The molar content of short-chain glycosylated genistein (here the short-chain glycosylated genistein was a mixture of monoglycosylated genistein, diglycosylated genistein and triglycosylated genistein) and long-chain glycosylated genistein (here the long-chain glycosylated genistein was a mixture of tetraglycosylated genistein, pentaglycosylated genistein and hexaglycosylated genistein) in the reaction solution was detected by HPLC, the ratio (%) of the molar content of short-chain glycosylated genistein and long-chain glycosylated genistein in the reaction solution to the molar content of total glycosylated genistein in the reaction solution and the content (g/L) of short-chain glycosylated genistein and long-chain glycosylated genistein in the reaction solution were calculated, and detection results were shown in Tables 1 to 2. A method for detecting the ratio (%) of the content of short-chain glycosylated genistein and long-chain glycosylated genistein in the reaction solution to the content of total glycosylated genistein in the reaction solution by HPLC included that the reaction solution was filtered through a 0.22 μm filter membrane, and an Amethyst C18-H column (4.6*250 mm, Sepax, America) was used for detection (see Table 3 for specific detection conditions). The content of long-chain glycosylated genistein=the molar content of hexaglycosylated genistein*the molecular weight of hexaglycosylated genistein+ the molar content of pentaglycosylated genistein*the molecular weight of pentaglycosylated genistein+ the molar content of tetraglycosylated genistein*the molecular weight of tetraglycosylated genistein, and the content of short-chain glycosylated genistein=the molar content of triglycosylated genistein*the molecular weight of triglycosylated genistein+ the molar content of diglycosylated genistein*the molecular weight of diglycosylated genistein+ the molar content of monoglycosylated genistein*the molecular weight of monoglycosylated genistein.

B1: A156V/L174P: cyclodextrin glucosyltransferase mutant: alanine 156 into valine and leucine 174 into proline of SEQ ID NO: 1 (protein)
chain: SPDTSVDNKVNFSTDVIYQIVTDRFADGDRTNNPAGDAFSGDRSNLKLYFGGDWQGIIDKINDGYLTGMGVTALWISQPVENITSVIKYSGVNNTSYHGYWARDFKQTNDAFGDFADFQNLIDTAHAHNIKVVIDFAPNHTSPADRDNPGFAENGVLYDNGSLLGAYSNDTAGPFHHNGGTDFSTIEDGIYKNLYDLADINHNNNAMDAYFKSAIDLWLGMGVDGIRFDAVKHMPFGWQKSFVSSIYGGDHPVFTFGEWYLGADQTDGDNIKFANESGMNLLDFEYAQEVREVFRDKTETMKDLYEVLASTESQYDYINNMVTFIDNHDMDRFQVAGSGTRATEQALALTLTSRGVPAIYYGTEQYMTGDGDPNNRAMMTSFNTGTTAYKVIQALAPLRKSNPAIAYGTTTERWVNNDVLIIERKFGSSAALVAINRNSSAAYPISGLLSSLPAGTYSDVLNGLLNGNSITVGSGGAVTNFTLAAGGTAVWQYTAPETSPAIGNVGPTMGQPGNIVTIDGRGFGGTAGTVYFGTTAVTGSGIVSWEDTQIKAVIPKVAAGKTGVSVKTSSGTASNTFKSFNVLTGDQVTVRFLVNQANTNYGTNVYLVGNAAELGSWDPNKAIGPMYNQVIAKYPSWYYDVSVPAGTKLDFKFIKKGGGTVTWEGGGNHTYTTPASGVGTVTVDWQN
modifications: Translated from synthetic DNA
  content of long-chain glycosylated genistein in the reaction solution: 5.2 g/L
  content of short-chain glycosylated genistein in the reaction solution: 9.7 g/L
  ratio of the molar content of long-chain glycosylated genistein to the molar content of total glycosylated genistein in the reaction solution: 25%
  ratio of the molar content of short-chain glycosylated genistein to the molar content of total glycosylated genistein in the reaction solution: 75%
  specificity to long-chain glycosylated genistein products in comparison with wild type: significantly improved
  increase of the yield of long-chain glycosylated genistein compared with wild-type cyclodextrin glucosyltransferase: 62.5%

B2: A156V/L174P/A166G: cyclodextrin glucosyltransferase mutant: A156V, L174P and alanine 166 into glycine of SEQ ID NO: 1 (protein)
chain: SPDTSVDNKVNFSTDVIYQIVTDRFADGDRTNNPAGDAFSGDRSNLKLYFGGDWQGIIDKINDGYLTGMGVTALWISQPVENITSVIKYSGVNNTSYHGYWARDFKQTNDAFGDFADFQNLIDTAHAHNIKVVIDFAPNHTSPADRDNPGFAENGVLYDNGSLLGGYSNDTAGPFHHNGGTDFSTIEDGIYKNLYDLADINHNNNAMDAYFKSAIDLWLGMGVDGIRFDAVKHMPFGWQKSFVSSIYGGDHPVFTFGEWYLGADQTDGDNIKFANESGMNLLDFEYAQEVREVFRDKTETMKDLYEVLASTESQYDYINNMVTFIDNHDMDRFQVAGSGTRATEQALALTLTSRGVPAIYYGTEQYMTGDGDPNNRAMMTSFNTGTTAYKVIQALAPLRKSNPAIAYGTTTERWVNNDVLIIERKFGSSAALVAINRNSSAAYPISGLLSSLPAGTYSDVLNGLLNGNSITVGSGGAVTNFTLAAGGTAVWQYTAPETSPAIGNVGPTMGQPGNIVTIDGRGFGGTAGTVYFGTTAVTGSGIVSWEDTQIKAVIPKVAAGKTGVSVKTSSGTASNTFKSFNVLTGDQVTVRFLVNQANTNYGTNVYLVGNAAELGSWDPNKAIGPMYNQVIAKYPSWYYDVSVPAGTKLDFKFIKKGGGTVTWEGGGNHTYTTPASGVGTVTVDWQN
modifications: Translated from synthetic DNA
  content of long-chain glycosylated genistein in the reaction solution: 4.4 g/L
  content of short-chain glycosylated genistein in the reaction solution: 10.9 g/L
  ratio of the molar content of long-chain glycosylated genistein to the molar content of total glycosylated genistein in the reaction solution: 20%
  ratio of the molar content of short-chain glycosylated genistein to the molar content of total glycosylated genistein in the reaction solution: 80%
  specificity to long-chain glycosylated genistein products in comparison with wild type: significantly improved

B3: A156V/L174P/A166K: cyclodextrin glucosyltransferase mutant: A156V, L174P and alanine 166 into lysine of SEQ ID NO: 1 (protein)
chain: SPDTSVDNKVNFSTDVIYQIVTDRFADGDRTNNPAGDAFSGDRSNLKLYFGGDWQGIIDKINDGYLTGMGVTALWISQPVENITSVIKYSGVNNTSYHGYWARDFKQTNDAFGDFADFQNLIDTAHAHNIKVVIDFAPNHTSPADRDNPGFAENGVLYDNGSLLGKYSNDTAGPFHHNGGTDFSTIEDGIYKNLYDLADINHNNNAMDAYFKSAIDLWLGMGVDGIRFDAVKHMPFGWQKSFVSSIYGGDHPVFTFGEWYLGADQTDGDNIKFANESGMNLLDFEYAQEVREVFRDKTETMKDLYEVLASTESQYDYINNMVTFIDNHDMDRFQVAGSGTRATEQALALTLTSRGVPAIYYGTEQYMTGDGDPNNRAMMTSFNTGTTAYKVIQALAPLRKSNPAIAYGTTTERWVNNDVLIIERKFGSSAALVAINRNSSAAYPISGLLSSLPAGTYSDVLNGLLNGNSITVGSGGAVTNFTLAAGGTAVWQYTAPETSPAIGNVGPTMGQPGNIVTIDGRGFGGTAGTVYFGTTAVTGSGIVSWEDTQIKAVIPKVAAGKTGVSVKTSSGTASNTFKSFNVLTGDQVTVRFLVNQANTNYGTNVYLVGNAAELGSWDPNKAIGPMYNQVIAKYPSWYYDVSVPAGTKLDFKFIKKGGGTVTWEGGGNHTYTTPASGVGTVTVDWQN
modifications: Translated from synthetic DNA
  content of long-chain glycosylated genistein in the reaction solution: 5.1 g/L
  content of short-chain glycosylated genistein in the reaction solution: 10.1 g/L
  ratio of the molar content of long-chain glycosylated genistein to the molar content of total glycosylated genistein in the reaction solution: 24%
  ratio of the molar content of short-chain glycosylated genistein to the molar content of total glycosylated genistein in the reaction solution: 76%
  specificity to long-chain glycosylated genistein products in comparison with wild type: significantly improved
  increase of the yield of long-chain glycosylated genistein compared with wild-type cyclodextrin glucosyltransferase: 59.4%

B4: A156V/L174P/A166V: cyclodextrin glucosyltransferase mutant: A156V, L174P and alanine 166 into valine of SEQ ID NO: 1 (protein)
chain: SPDTSVDNKVNFSTDVIYQIVTDRFADGDRTNNPAGDAFSGDRSNLKLYFGGDWQGIIDKINDGYLTGMGVTALWISQPVENITSVIKYSGVNNTSYHGYWARDFKQTNDAFGDFADFQNLIDTAHAHNIKVVIDFAPNHTSPADRDNPGFAENGVLYDNGSLLGVYSNDTAGPFHHNGGTDFSTIEDGIYKNLYDLADINHNNNAMDAYFKSAIDLWLGMGVDGIRFDAVKHMPFGWQKSFVSSIYGGDHPVFTFGEWYLGADQTDGDNIKFANESGMNLLDFEYAQEVREVFRDKTETMKDLYEVLASTESQYDYINNMVTFIDNHDMDRFQVAGSGTRATEQALALTLTSRGVPAIYYGTEQYMTGDGDPNNRAMMTSFNTGTTAYKVIQALAPLRKSNPAIAYGTTTERWVNNDVLIIERKFGSSAALVAINRNSSAAYPISGLLSSLPAGTYSDVLNGLLNGNSITVGSGGAVTNFTLAAGGTAVWQYTAPETSPAIGNVGPTMGQPGNIVTIDGRGFGGTAGTVYFGTTAVTGSGIVSWEDTQIKAVIPKVAAGKTGVSVKTSSGTASNTFKSFNVLTGDQVTVRFLVNQANTNYGTNVYLVGNAAELGSWDPNKAIGPMYNQVIAKYPSWYYDVSVPAGTKLDFKFIKKGGGTVTWEGGGNHTYTTPASGVGTVTVDWQN
modifications: Translated from synthetic DNA
  content of long-chain glycosylated genistein in the reaction solution: 6.8 g/L
  content of short-chain glycosylated genistein in the reaction solution: 9.5 g/L
  ratio of the molar content of long-chain glycosylated genistein to the molar content of total glycosylated genistein in the reaction solution: 29%
  ratio of the molar content of short-chain glycosylated genistein to the molar content of total glycosylated genistein in the reaction solution: 71%
  specificity to long-chain glycosylated genistein products in comparison with wild type: significantly improved
  increase of the yield of long-chain glycosylated genistein compared with wild-type cyclodextrin glucosyltransferase: 112.5%
